Earlier results, collected in patent publication US20100068187A1, “TRANSCRIPTION FACTORS FOR DIFFERENTIATION OF ADULT HUMAN OLFACTORY PROGENITOR CELLS” (priority 2006, published 2010).

B1: GDNF: glial-derived neurotrophic factor (protein, UniProt P39905 78-211, looked up)
Glial cell line-derived …: SPDKQMAVLPRRERNRQAAAANPENSRGKGRRGQRGKNRGCVLTAIHLNVTDLGLGYETKEELIFRYCSGSCDAAETTYDKILKNLSRNRRLVSDKVGQACCRPIAFDDDLSFLDDNLVYHILRKHSAKRCGCI
B2: BDNF: brain-derived neurotrophic factor (protein, UniProt P23560 19-247, looked up)
Neurotrophic factor BDNF …: APMKEANIRGQGGLAYPGVRTHGTLESVNGPKAGSRGLTSLADTFEHVIEELLDEDQKVRPNEENNKDADLYTSRVMLSSQVPLEPPLLFLLEEYKNYLDAANMSMRVRRHSDPARRGELSVCDSISEWVTAADKKTAVDMSGGTVTVLEKVPVSKGQLKQYFYETKCNPMGYTKEGCRGIDKRHWNSQCRTTQSYVRALTMDSKKRIGWRFIRIDTSCVCTLTIKRGR

System: Human NSFCs
Conditions: incubated in the presence of neurotrophic factor

| Molecule | neuronal differentiation of human NSFCs |
| --- | --- |
| B1 | refractory to neuronal differentiation |
| B2 | refractory to neuronal differentiation |
